In assay [1] the target is T1, canine CAPRIN-1, endogenous (canine tissue sections; serum of cancer-bearing dogs) (dog, UniProt A0A8I3S8S8 2-717).
T1 construct: Endogenous protein or fragment of it; also called antigen polypeptide contained in specimens (dog)
T1 sequence: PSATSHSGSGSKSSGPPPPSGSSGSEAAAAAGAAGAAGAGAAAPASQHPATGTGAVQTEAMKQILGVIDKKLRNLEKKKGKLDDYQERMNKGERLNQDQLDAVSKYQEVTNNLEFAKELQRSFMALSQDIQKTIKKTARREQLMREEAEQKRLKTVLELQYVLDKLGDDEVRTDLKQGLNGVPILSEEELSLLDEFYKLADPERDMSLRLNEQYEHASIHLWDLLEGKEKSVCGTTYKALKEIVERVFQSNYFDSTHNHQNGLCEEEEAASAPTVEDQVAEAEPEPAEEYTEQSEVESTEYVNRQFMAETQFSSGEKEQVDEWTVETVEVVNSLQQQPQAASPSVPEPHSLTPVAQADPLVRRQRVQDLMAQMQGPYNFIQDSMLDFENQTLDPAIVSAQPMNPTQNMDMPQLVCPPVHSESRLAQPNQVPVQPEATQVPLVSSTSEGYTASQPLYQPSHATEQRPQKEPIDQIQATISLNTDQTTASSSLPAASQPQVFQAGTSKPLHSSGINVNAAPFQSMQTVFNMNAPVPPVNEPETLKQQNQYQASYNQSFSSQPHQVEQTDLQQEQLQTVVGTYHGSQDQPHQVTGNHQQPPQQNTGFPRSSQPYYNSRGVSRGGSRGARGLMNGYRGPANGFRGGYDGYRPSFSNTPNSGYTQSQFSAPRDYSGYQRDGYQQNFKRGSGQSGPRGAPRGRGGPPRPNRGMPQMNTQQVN
Kind of assay: sandwich ELISA: polyclonal anti-SEQ ID NO: 43 immobilised, serum of cancer-bearing dogs, monoclonal antibody 1 ug/ml as secondary antibody. From the text:
With the use of the polyclonal antibody against CAPRIN-1-derived peptide (SEQ ID NO: 43) obtained in Example 3 (1) and each monoclonal antibody against the CAPRIN-1 protein obtained in Example 3 (2) in combination, the antigen polypeptide itself contained in specimens (cancer-bearing living organism-derived serum) reacted positive upon cancer diagnosis using the polypeptide of CAPRIN-1 in Example 4 (1)-(3) was detected by Sandwich ELISA. The polyclonal antibody was used as a primary antibody and each monoclonal antibody was used as a secondary antibody. The serum protein level of the protein specifically reacting with each of the above antibodies was measured.
The primary antibody was immobilized by adding the polyclonal antibody diluted to a concentration of 5 μg/ml with phosphate buffered saline to 96-well immobilizer amino plates (Nunc) at 100 μl/well and then shaking the plates at room temperature for 2 hours. Blocking was performed by adding a 50 mM sodium bicarbonate buffer solution (pH 8.4) (hereinafter, blocking solution) containing 0.5% BSA (bovine serum albumin, Sigma Aldrich Japan) at 100 μl/well and then shaking at room temperature for 1 hour. Subsequently, a cancer-bearing living organism-derived serum diluted using the blocking solution was added at 100 μl/well and then the resultants were shaken at room temperature for 3 hours for reaction. The dilution rate at this time was adjusted with 10-fold (10-1000-fold) dilution series. After 3 instances of washing with phosphate buffered saline (hereinafter, PBS-T) containing 0.05% Tween20 (Wako Pure Chemical Industries, Ltd.), each monoclonal antibody as a secondary antibody diluted to a concentration of 1 μg/ml with the blocking solution was added at 100 μl/well and then the resultants were shaken at room temperature for 1 hour for reaction. After 3 instances of washing with PBS-T, an HRP-labeled anti-mouse IgG (H+L) antibody (Invitrogen Corporation) as a tertiary antibody diluted 5000-fold with the blocking solution was added at 100 μl per well and then left to stand at room temperature for 1 hour. […]

The target in assay [2] is feline CAPRIN-1, endogenous (serum of cancer-bearing cats) (cat). Kind of assay: sandwich ELISA: polyclonal anti-SEQ ID NO: 43 immobilised, serum of cancer-bearing cats, monoclonal antibody 1 ug/ml as secondary antibody. In general terms: An ELISA detects its analyte on a solid surface through an enzyme-linked reagent.

B1: monoclonal antibody #6 (antibody, V domains shown)
VH: LQESGAELARPGASVKLSCKASGYTFTSYWMQWVKQRPGQGLEWIGAIYPGDGDTRYTQKFKGKATLTADKSSSTAYMQLSSLASEDSAVYYCARGEYGNYFAYWGQGTTVTVSS
VL: TSDASLGERVTITCKASQDINSYLSWFQQKPGKSPKTLIYRANRLVDGVPSRFSGSGSGQDYSLTISSLEYEDMGIYYCLQYDEFPLTFGGGTKLEIKQ
notes: mouse hybridoma monoclonal antibody; also called anti-CAPRIN-1 monoclonal antibody #6
Take B1: in assay [1], the “absorbance at 450 nm (polypeptide level)” value is at least 0.3.

B2: monoclonal antibody #2 (antibody, V domains shown)
VH: EVQLHQFGAELVKPGASVKISCKASGYTFTDYNMDWVKQSHGKSLEWIGDINPNYDSTSYNQKFKGKATLTVDKSSSTAYMELRSLTSEDTAVYYCARSRSYDYEGFAYWGQGTLVTVSA
VL: DIQLTQSPASLSASVGETVTITCRASGNIHNYLAWYQQKQGKSPQLLVYNAKTLADGVPSRFSGSGSGTQYSLKINSLQPEDFGSYYCQHFWSTLTFGGGTKLEIK
notes: mouse hybridoma monoclonal antibody; also called anti-CAPRIN-1 monoclonal antibody #2
Regarding B2, the figures for the absorbance at 450 nm (polypeptide level) in assay [2] and in assay [1] were above 0.3 and at least 0.3, respectively.

B3: monoclonal antibody #3 (antibody, V domains shown)
VH: B2 VH
VL: SGDRVSLSCRASQSISNYLHWYQQKSHESPRLLIKYASQSISGIPSRFSGSGSGTDFTLSINSVETEDFGMYFCQQSNSWPYTFGAGTKLEIKQ
notes: mouse hybridoma monoclonal antibody; also called anti-CAPRIN-1 monoclonal antibody #3
For B3, the “absorbance at 450 nm (polypeptide level)” value in assay [1] is at least 0.3.

The values above are taken from US20110136121A1 (TORAY INDUSTRIES, published 2011).
